In US20240376151A1, “STAPLED PEPTIDES AND METHODS THEREOF” (FOG PHARMACEUTICALS, INC., priority 2022, published 2024):

Columns and labels:
RNF31 UBA domain = target: T1, RNF31 UBA domain (Homo sapiens, UniProt Q96EP0); experiment: Phage Library Screening with NGS, RNF31 UBA domain; format: binding; conditions: for phage screen NGS read-out at Target Concentration 10 / phage screen NGS read-out at Target Concentration 30 / phage screen NGS read-out at Target Concentration 100 / phage screen NGS read-out at Target Concentration 300: no competitor; for Phage library screen NGS readout, Target Concentration 10 / Phage library screen NGS readout, Target Concentration 30 / Phage library screen NGS readout, Target Concentration 100 / Phage library screen NGS readout, Target Concentration 300 / Phage library screen NGS readout, Target Concentration 1000: RNF31 UBA domain cluster C46; for Phage library screen NGS readout, BLANK: cluster C46
T1 construct: RNF31 UBA domain protein (residues 480-639) with N-terminal Thioredoxin-TEV-6×his-yBBr-3C tags; Thioredoxin (N, cleaved yes); made in house; host or cells: E. coli BL21 (DE3) pLysS
T1 sequence (Q96EP0 480-639): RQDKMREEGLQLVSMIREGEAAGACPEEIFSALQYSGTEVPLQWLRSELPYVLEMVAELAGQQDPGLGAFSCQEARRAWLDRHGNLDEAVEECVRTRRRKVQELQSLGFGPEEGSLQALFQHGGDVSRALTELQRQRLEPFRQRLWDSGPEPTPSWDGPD

beta-catenin = target: T2, beta-catenin (Homo sapiens, UniProt P35222); experiment: Phage Library Screening with NGS, beta-catenin; format: binding; conditions: for Target Concentration 10 (phage screen NGS readout): beta-catenin target concentration 10; for Target Concentration 10 (phage screen NGS readout) / Target Concentration 30 (phage screen NGS readout) / Target Concentration 100 (phage screen NGS readout) / Target Concentration 300 (phage screen NGS readout): no competitor; for Target Concentration 30 (phage screen NGS readout): beta-catenin target concentration 30; for Target Concentration 100 (phage screen NGS readout): beta-catenin target concentration 100; for Target Concentration 300 (phage screen NGS readout): beta-catenin target concentration 300; for Target Concentration 1000 (phage screen NGS readout): beta-catenin target concentration 1000
T2 construct: made in house; host or cells: E. coli BL21 (DE3) pLysS
T2 sequence (P35222 134-665): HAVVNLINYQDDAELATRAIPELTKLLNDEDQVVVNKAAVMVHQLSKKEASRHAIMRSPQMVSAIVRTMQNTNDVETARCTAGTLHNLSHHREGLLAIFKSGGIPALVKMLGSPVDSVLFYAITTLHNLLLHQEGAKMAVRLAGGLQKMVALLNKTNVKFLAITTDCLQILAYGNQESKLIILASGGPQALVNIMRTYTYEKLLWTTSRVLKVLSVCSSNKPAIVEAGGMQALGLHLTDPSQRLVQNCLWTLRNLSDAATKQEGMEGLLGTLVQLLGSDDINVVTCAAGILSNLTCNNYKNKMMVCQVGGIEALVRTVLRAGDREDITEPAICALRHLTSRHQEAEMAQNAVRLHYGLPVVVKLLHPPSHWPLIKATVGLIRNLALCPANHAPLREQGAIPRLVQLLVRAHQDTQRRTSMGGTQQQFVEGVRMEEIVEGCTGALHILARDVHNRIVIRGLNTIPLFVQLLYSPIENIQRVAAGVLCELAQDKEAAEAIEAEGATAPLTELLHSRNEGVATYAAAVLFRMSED

[1] = target concentration 1000, first column
[2] = target concentration 1000, second column

Sequence	phage screen NGS read-out at Target Concentration 10 (RNF31 UBA domain)	phage screen NGS read-out at Target Concentration 30 (RNF31 UBA domain)	phage screen NGS read-out at Target Concentration 100 (RNF31 UBA domain)	phage screen NGS read-out at Target Concentration 300 (RNF31 UBA domain)	Target Concentration BLANK (phage screen NGS readout) (beta-catenin; first column)	Target Concentration BLANK (phage screen NGS readout) (beta-catenin; fourth column)	Target Concentration BLANK (phage screen NGS readout) (beta-catenin; second column)	Target Concentration BLANK (phage screen NGS readout) (beta-catenin; third column)	Target Concentration 10 (phage screen NGS readout) (beta-catenin)	Target Concentration 30 (phage screen NGS readout) (beta-catenin)	Target Concentration 100 (phage screen NGS readout) (beta-catenin)	Target Concentration 300 (phage screen NGS readout) (beta-catenin)	Target Concentration 1000 (phage screen NGS readout) (beta-catenin; first 1000 column)	Target Concentration 1000 (phage screen NGS readout) (beta-catenin; second 1000 column)	other results
DPAAFVCEMAANDCLYT	0	1	0	2											
DPAALACLSAAVYCEMY															Phage library screen NGS readout, Target Concentration 10 (RNF31 UBA domain): 6; Phage library screen NGS readout, Target Concentration 30 (RNF31 UBA domain): 49; Phage library screen NGS readout, Target Concentration 100 (RNF31 UBA domain): 132; Phage library screen NGS readout, Target Concentration 300 (RNF31 UBA domain): 200; Phage library screen NGS readout, Target Concentration 1000 (RNF31 UBA domain; [1]): 199; Phage library screen NGS readout, Target Concentration 1000 (RNF31 UBA domain; [2]): 246; Phage library screen NGS readout, BLANK (RNF31 UBA domain; column 1 of 5): 0; Phage library screen NGS readout, BLANK (RNF31 UBA domain; column 2 of 5): 1; Phage library screen NGS readout, BLANK (RNF31 UBA domain; column 3 of 5): 2; Phage library screen NGS readout, BLANK (RNF31 UBA domain; column 4 of 5): 0; Phage library screen NGS readout, BLANK (RNF31 UBA domain; column 5 of 5): 1
DPAAQACLSAAVFCAWY															Phage library screen NGS readout, Target Concentration 10 (RNF31 UBA domain): 5; Phage library screen NGS readout, Target Concentration 30 (RNF31 UBA domain): 19; Phage library screen NGS readout, Target Concentration 100 (RNF31 UBA domain): 45; Phage library screen NGS readout, Target Concentration 300 (RNF31 UBA domain): 86; Phage library screen NGS readout, Target Concentration 1000 (RNF31 UBA domain; [1]): 88; Phage library screen NGS readout, Target Concentration 1000 (RNF31 UBA domain; [2]): 97; Phage library screen NGS readout, BLANK (RNF31 UBA domain; column 1 of 5): 0; Phage library screen NGS readout, BLANK (RNF31 UBA domain; column 2 of 5): 0; Phage library screen NGS readout, BLANK (RNF31 UBA domain; column 3 of 5): 0; Phage library screen NGS readout, BLANK (RNF31 UBA domain; column 4 of 5): 0; Phage library screen NGS readout, BLANK (RNF31 UBA domain; column 5 of 5): 0
DPAASQCFSAAVYCAWI															Phage library screen NGS readout, Target Concentration 10 (RNF31 UBA domain): 0; Phage library screen NGS readout, Target Concentration 30 (RNF31 UBA domain): 0; Phage library screen NGS readout, Target Concentration 100 (RNF31 UBA domain): 8; Phage library screen NGS readout, Target Concentration 300 (RNF31 UBA domain): 13; Phage library screen NGS readout, Target Concentration 1000 (RNF31 UBA domain; [1]): 16; Phage library screen NGS readout, Target Concentration 1000 (RNF31 UBA domain; [2]): 13; Phage library screen NGS readout, BLANK (RNF31 UBA domain; column 1 of 5): 0; Phage library screen NGS readout, BLANK (RNF31 UBA domain; column 2 of 5): 0; Phage library screen NGS readout, BLANK (RNF31 UBA domain; column 3 of 5): 0; Phage library screen NGS readout, BLANK (RNF31 UBA domain; column 4 of 5): 1; Phage library screen NGS readout, BLANK (RNF31 UBA domain; column 5 of 5): 0
DPADWTCVLAAHNCLYT	0	0	0	1											
DPADYICYLAANNCLYH	3	1	4	19											
DPAEQRCLSAAVYCAWH															Phage library screen NGS readout, Target Concentration 10 (RNF31 UBA domain): 1; Phage library screen NGS readout, Target Concentration 30 (RNF31 UBA domain): 3; Phage library screen NGS readout, Target Concentration 100 (RNF31 UBA domain): 16; Phage library screen NGS readout, Target Concentration 300 (RNF31 UBA domain): 18; Phage library screen NGS readout, Target Concentration 1000 (RNF31 UBA domain; [1]): 36; Phage library screen NGS readout, Target Concentration 1000 (RNF31 UBA domain; [2]): 26; Phage library screen NGS readout, BLANK (RNF31 UBA domain; column 1 of 5): 0; Phage library screen NGS readout, BLANK (RNF31 UBA domain; column 2 of 5): 1; Phage library screen NGS readout, BLANK (RNF31 UBA domain; column 3 of 5): 1; Phage library screen NGS readout, BLANK (RNF31 UBA domain; column 4 of 5): 0; Phage library screen NGS readout, BLANK (RNF31 UBA domain; column 5 of 5): 0
DPAEWLCQMAAHNCIYL	0	1	2	13											
DPAWILCDWAAMHCELV					0	0	0	0	0	0	2	3	1	18	
DPAWSDCIWAAEHCQLI					0	0	1	0	0	3	5	127	109	85	
DPAYTYCQWAAEHCSLL					2	2	2	1	5	5	3	88	115	137	
DPAYWVCEHAALLCTDY					3	0	3	1	5	18	85	337	283	227	

Now from value to sequence, other results behind:

phage screen NGS read-out at Target Concentration 10 (RNF31 UBA domain)	phage screen NGS read-out at Target Concentration 30 (RNF31 UBA domain)	phage screen NGS read-out at Target Concentration 100 (RNF31 UBA domain)	phage screen NGS read-out at Target Concentration 300 (RNF31 UBA domain)	Target Concentration BLANK (phage screen NGS readout) (beta-catenin; first column)	Target Concentration BLANK (phage screen NGS readout) (beta-catenin; fourth column)	Target Concentration BLANK (phage screen NGS readout) (beta-catenin; second column)	Target Concentration BLANK (phage screen NGS readout) (beta-catenin; third column)	Target Concentration 10 (phage screen NGS readout) (beta-catenin)	Target Concentration 30 (phage screen NGS readout) (beta-catenin)	Target Concentration 100 (phage screen NGS readout) (beta-catenin)	Target Concentration 300 (phage screen NGS readout) (beta-catenin)	Target Concentration 1000 (phage screen NGS readout) (beta-catenin; first 1000 column)	Target Concentration 1000 (phage screen NGS readout) (beta-catenin; second 1000 column)	Sequence	other results
1	0	0	0											DPAAYLCDMAAHNCLYL	
0	0	2	30											DPADLICQLAAANCIYL	
1	0	0	0											DPADLLCHMAAQNCLYR	
0	1	1	1											DPAEWICEMAAHNCLYM	
0	0	4	10											DPAEWICRMAAMNCLYQ (Ac-DPAEWICRMAAMNCLYQ-NH2; not fully specified (bridges); cysteine pairing not given here)	
0	0	2	19											DPAEYHCDAAAVWCYLM	
				0	0	0	0	0	0	0	0	0	13	DPAVVECYEAAYTCQYI	
				0	0	1	0	0	10	52	194	158	163	DPAWQNCTWAAFHCELL	
				0	0	1	2	28	127	422	637	830	731	DPAWWQCDHAALICIAE	
				0	0	1	2	3	14	152	42	543	409	DPAYWDCTHAALLCNLD	
